For experiment [1], the target named is T1, IL17A (human, UniProt Q16552 24-155).
T1 construct: Recombinant human protein in ELISA and BLI
T1 sequence (looked up): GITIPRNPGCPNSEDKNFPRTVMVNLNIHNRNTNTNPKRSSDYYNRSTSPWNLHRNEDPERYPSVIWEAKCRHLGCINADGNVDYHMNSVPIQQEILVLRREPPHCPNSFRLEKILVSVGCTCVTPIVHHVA
Description: BLI, AHC sensor, nanobody-Fc captured, antigen in solution. The source says: (§1) Octet RED96 System (ForteBio) was used to perform kinetic measurement of nanobody binding to antigens. For Anti-Penta-His Biosensors (HIS1K), his-tagged recombinant human proteins were first immobilized onto the biosensors, and recombinant nanobodies fused with human IgG1 were applied to detect binding. For Anti-Human IgG Fc Capture Biosensors (AHC), recombinant nanobodies fused with human IgG1 were first loaded onto the biosensors, and probes were dipped in serial dilutions of recombinant human antigens.

Experiment [2] concerns the target T1, IL17A. Nature of the experiment: ELISA, plate-coated recombinant human protein, nanobody-Fc. The procedure:
(§2) Recombinant human protein was diluted in PBS to a final concentration of 5 μg/mL and was immobilized on 96-well flat bottom MaxiSorp plates (Thermo Fisher Scientific) and placed at 4° C. overnight. Plates were washed three times with 225 μL ELISA wash buffer (PBS with 0.05% Tween 20) and 200 μL ELISA blocking buffer (PBS with 1% Casein) was added to the well. Plates were incubated with shaking for 2 hours at room temperature. ELISA blocking buffer was removed from the wells and appropriate dilutions of recombinant nanobodies in 100 μL ELISA blocking buffer was added to each well. Plates were incubated with shaking for 2 hours at room temperature. Plates were washed 3 times with 225 μL ELISA wash buffer and 1:5000 goat anti-human IgG HRP (Millipore Sigma) in 100 μL ELISA blocking buffer was added to the wells. Plates were incubated with shaking for 1 hour at room temperature. Plates were washed 6 times with 225 μL ELISA wash buffer. 50 μL TMB substrate (BD Biosciences) was added to the wells and plates were incubated for 15 minutes in the dark at room temperature. 50 μL 1 M sulfuric acid was added to the wells and absorbance at 450 nm was measured in a Synergy HTX Multi-Mode Microplate Reader (BioTek).

The target of a further experiment is T2, IL10RA (human, UniProt Q13651 22-235).
T2 construct: Recombinant human protein in ELISA
T2 sequence (looked up): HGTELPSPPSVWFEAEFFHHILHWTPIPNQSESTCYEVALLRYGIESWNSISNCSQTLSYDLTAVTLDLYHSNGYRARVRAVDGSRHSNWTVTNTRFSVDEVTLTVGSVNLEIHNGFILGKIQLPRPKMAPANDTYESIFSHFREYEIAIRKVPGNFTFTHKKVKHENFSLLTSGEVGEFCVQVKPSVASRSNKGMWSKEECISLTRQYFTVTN
Described as above. How it is done: as §2

Experiment [3] concerns the target T3, CCL16 (human, UniProt O15467 24-120).
T3 construct: Recombinant human protein in ELISA and BLI
T3 sequence (looked up): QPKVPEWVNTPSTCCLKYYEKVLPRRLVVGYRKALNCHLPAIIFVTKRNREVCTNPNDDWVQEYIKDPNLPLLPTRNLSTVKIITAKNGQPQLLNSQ
Description: BLI, AHC sensor, nanobody-Fc captured, antigen in solution.
Text: as §1

The target in experiment [4] is T3, CCL16. Nature of the experiment: ELISA, plate-coated recombinant human protein, nanobody-Fc. The procedure:
as §2

In experiment [5] the target is T4, IL1RN (human, UniProt P18510 26-177).
T4 construct: Recombinant human protein in ELISA and BLI
The experiment is described as above. The procedure:
as §2

Experiment [6] deals with T5, PROCR (human, UniProt Q9UNN8 18-210).
T5 construct: Recombinant human protein in ELISA and BLI
T5 sequence (looked up): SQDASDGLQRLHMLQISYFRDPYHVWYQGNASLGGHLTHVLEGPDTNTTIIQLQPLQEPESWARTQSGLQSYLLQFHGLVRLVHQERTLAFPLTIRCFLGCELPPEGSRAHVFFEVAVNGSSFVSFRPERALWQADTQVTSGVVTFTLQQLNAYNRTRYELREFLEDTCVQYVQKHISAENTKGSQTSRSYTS
Description: BLI, AHC sensor, nanobody-Fc captured, antigen in solution.
Text: as §1

Experiment [7] deals with T5, PROCR. Nature of the experiment: ELISA, plate-coated recombinant human protein, nanobody-Fc. The procedure: as §2
The target in the next experiment is T6, LAIR2 (human, UniProt Q6ISS4 22-152).
T6 construct: Recombinant human protein in ELISA
T6 sequence (looked up): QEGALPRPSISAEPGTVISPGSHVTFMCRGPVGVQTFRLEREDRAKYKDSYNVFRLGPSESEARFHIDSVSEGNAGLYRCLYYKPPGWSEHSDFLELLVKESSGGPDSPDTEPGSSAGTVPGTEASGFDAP
The experiment is described as above. How it is done: as §2

The target of experiment [8] is T4, IL1RN. Description: BLI, AHC sensor, nanobody-Fc captured, antigen in solution.
Text: as §1

T4 sequence (P18510 26-177 limits assumed): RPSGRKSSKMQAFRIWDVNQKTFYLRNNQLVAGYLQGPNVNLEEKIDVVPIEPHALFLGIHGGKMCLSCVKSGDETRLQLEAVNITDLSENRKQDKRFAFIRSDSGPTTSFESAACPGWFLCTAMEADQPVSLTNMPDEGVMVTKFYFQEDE

B1: IL17A_Nb2.92 (Fc fusion)
chain: QVQLQESGGGLVQAGGSLRLSCAASGTISQGDYMGWYRQAPGKEREFVASIAIGTITYYADSVKGRFTISRDNAKNTVYLQMNSLKPEDTAVYYCAVSVQFSYDFYYWGQGTQVTVSS
notes: Nanobody expressed and tested as Fc fusion (human IgG1); not shown: human IgG1 Fc (vector pCER243)
In the case of B1, in the experiment with IL17A [1], the affinity, expressed as Kd, was 0.656 nM. Also, the EC50 with IL17A [2] is 0.179 nM.

B2: IL10RA_Nb72 (Fc fusion)
chain: QVQLQESGGGLVQAGGSLRLSCAASGTISSEHAMGWYRQAPGKERELVAGITYGSITNYADSVKGRFTISRDNAKNTVYLQMNSLKPEDTAVYYCAVYYYYRATIYHALGYWGQGTQVTVSS
notes: as for B1
In the case of B2, the EC50 in the experiment with IL10RA was found to be 16.9 nM.

B3: CCL16_Nb2.1 (Fc fusion)
chain: QVQLQESGGGLVQAGGSLRLSCAASGYISSYWDMGWYRQAPGKERELVAAIAPGTITYYADSVKGRFTISRDNAKNTVYLQMNSLKPEDTAVYYCAASEFDNEAHDYWGQGTQVTVSS
notes: as for B1
The molecule B3 returned a Kd with CCL16 [3] of 17.4 nM. Further, the EC50 with CCL16 [4] is 0.882 nM.

B4: IL1RN_Nb75 (Fc fusion)
chain: QVQLQESGGGLVQAGGSLRLSCAASGNIFRYDNMGWYRQAPGKEREFVATITYGSNTYYADSVKGRFTISRDNAKNTVYLQMNSLKPEDTAVYYCAAYFPYRSYDNSADTSSHSYWGQGTQVTVSS
notes: as for B1
B4: the EC50 with IL1RN [5] amounted to 6.9 nM.

B5: PROCR_Nb88 (Fc fusion)
chain: QVQLQESGGGLVQAGGSLRLSCAASGTIFKLGYMGWYRQAPGKEREFVATITTGATTYYADSVKGRFTISRDNAKNTVYLQMNSLKPEDTAVYYCAADTYGPWAYSYWGQGTQVTVSS
notes: as for B1
As for B5, in the experiment with PROCR [6], binding was put at a Kd of 62.9 nM. Moreover, the EC50 in the experiment with PROCR [7] came to 0.287 nM.

B6: LAIR2_Nb2.51 (Fc fusion)
chain: QVQLQESGGGLVQAGGSLRLSCAASGSIFYPSAMGWYRQAPGKERELVASIGQGGSTYYADSVKGRFTISRDNAKNTVYLQMNSLKPEDTAVYYCAVQPYSANLHRYWGQGTQVTVSS
notes: as for B1
Turning to B6, in the experiment with LAIR2, the half-maximal effective concentration (EC50) was 0.379 nM.

B7: IL1RN_Nb77 (Fc fusion)
chain: QVQLQESGGGLVQAGGSLRLSCAASGTIFTWLVMGWYRQAPGKERELVASIDPGTNTYYADSVKGRFTISRDNAKNTVYLQMNSLKPEDTAVYYCAARYVAGYTVGAYHYYWGQGTQVTVSS
notes: as for B1
In the experiment with IL1RN [8], B7 showed a Kd of 852 nM. For the same molecule, the EC50 with IL1RN [5] amounted to 0.168 nM.

B8: PROCR_Nb87 (Fc fusion)
chain: QVQLQESGGGLVQAGGSLRLSCAASGSISSYPYMGWYRQAPGKERELVASIASGTNTYYADSVKGRFTISRDNAKNTVYLQMNSLKPEDTAVYYCAADSTGPWSHVYWGQGTQVTVSS
notes: as for B1
B8 returned a Kd with PROCR [6] of 92.1 nM. The EC50 with PROCR [7] is 0.0104 nM.
